Results published in the supplement of paper PMC9170038.

System: MS2 coat protein
Assay: apparent KD of MS2 coat protein; designed switch direction (-1 OFF switch, 1 ON switch): -1; higher = weaker reporter binding
In short: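 An oligonucleotide input, 200 uM small-molecule ligand, or no input was present during titration of SNAP-549-labelled MS2 coat protein, which was doubled from 0.7 or 1.5 nM to 3 µM. Designed RNA switches had been transcribed on Illumina chips by stalled E. coli RNA polymerase. Apparent KD per design is the median over clusters of curves fitted to normalised cluster fluorescence.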

[1] = Eterna round: R95, input ligand: FMN 200 uM
[2] = Eterna round: R95, input ligand: microRNA oligo, concentration not stated
[3] = Eterna round: R95, input ligand: none
[4] = input ligand: microRNA oligo, concentration not stated

## CUAUGCAAAGUAAGGAUAUGCUUCCGGAAACGGAGGCAGAAGGUACAUGAGGAUCACCCAUGUUAAACGCAUAG [Explosion 4 - Jieux - Brourd's mod of Exclusion 4] (Eterna round: R97, puzzle: Brourd's mod of Exclusion 4)
Input ligand: FMN 200 uM
  apparent KD of MS2 coat protein: 0.0168 µM
Input ligand: none
  apparent KD of MS2 coat protein: 0.0128 µM

## CUAUUACGAGGAUAUGAUUUAAGUAACAUGAGGAUCACCCAUGUUUUUCCGUUGUUAUGUUCAGAAGGCGUAUUAU [JR_E5_Sub023] (puzzle: Exclusion 5)
[1]
  apparent KD of MS2 coat protein: 0.0861 µM
[2]
  apparent KD of MS2 coat protein: 0.0356 µM
[3]
  apparent KD of MS2 coat protein: 0.0388 µM

## CUAUUGGCAGGAUAUGCUUUUUUAGACAUGAGGAUCACCCAUGUGAUGAAUAUUGGGUUUGCAGAAGGGCCUGAAU [JR_E5_Sub039] (puzzle: Exclusion 5)
[2]
  apparent KD of MS2 coat protein: 0.0642 µM

## CUCAGACAUGAGGAUCACCCAUGUGAGGAUAUGAUGCAGCAGUGGUCUACGCUGUGCAUCAGAAGGCACAUGUG (puzzle: Exclusion 1)
[2]
  apparent KD of MS2 coat protein: 0.033 µM

## CUCAUGCCUGAGGAUAUGCUGUACAAAAGUACUGCAGAAGGCGGGACAUGAGGAUCACCCAUGUGGCGAAAGCC [Omei Ex G8] (Eterna round: R97, puzzle: Exclusion 6)
Input ligand: FMN 200 uM
  apparent KD of MS2 coat protein: 0.0787 µM
Input ligand: none
  apparent KD of MS2 coat protein: 0.519 µM

## CUCCGACAUGAGGAUCACCCAUGUUAGGAUAUCCCACGCAGGUAGUGAGAGAAUCUGUGGAGAAGGAGCAGGGU [Eternabot (L2) Solution 74] (Eterna round: R97, puzzle: Exclusion 1)
Input ligand: FMN 200 uM
  apparent KD of MS2 coat protein: 0.0219 µM
Input ligand: none
  apparent KD of MS2 coat protein: 0.0245 µM

## CUCCUCGUGGCGCCUAAACACAUGAGGAUCACCCAUGUACAGGCUUUUUGCCGUCUUAUAAUAAAACCGAGGAUACG [Cezabi] (puzzle: Sensor v3, turn-off variant 1)
[1]
  apparent KD of MS2 coat protein: 0.0191 µM
[2]
  apparent KD of MS2 coat protein: 0.0639 µM
[3]
  apparent KD of MS2 coat protein: 0.0212 µM

## CUCGAGUUAGGAUAUGGCGGCGACUGUGUUCGCAGAUCGCACCAGAAGGAACAUGAGGAUCACCCAUGUGACGG [Eternabot (L1) Solution 42] (Eterna round: R97, puzzle: Exclusion 4)
Input ligand: FMN 200 uM
  apparent KD of MS2 coat protein: 0.348 µM
Input ligand: none
  apparent KD of MS2 coat protein: 0.0897 µM

## CUCUCACAUGAGGAUCACCCAUGUCAGGAUAUCUCAGUGCAUCCACACGGACGCAUCAAGAGAAGGGACAAAAC [Vinxlusion 2 - Jieux - Exclusion 1] (Eterna round: R97, puzzle: Exclusion 1)
Input ligand: FMN 200 uM
  apparent KD of MS2 coat protein: 0.095 µM
Input ligand: none
  apparent KD of MS2 coat protein: 0.0591 µM

## CUCUCGUGAGGAUAUCUCCGCGAGAAUAAUGUUACACGCGAAGAGAAGGCACAUGAGGAUCACCCAUGUUAAAC [Eternabot (L1) Solution 31] (Eterna round: R97, puzzle: Exclusion 4)
Input ligand: FMN 200 uM
  apparent KD of MS2 coat protein: 0.23 µM
Input ligand: none
  apparent KD of MS2 coat protein: 0.0548 µM

## CUCUUGUCAGGAUAUCAACGCCAUCCACAUGGACGGCGAAAUGAGAAGGGACAUGAGGAUCACCCAUGUUAAAA [Xeveleqube] (puzzle: Exclusion 4)
[1]
  apparent KD of MS2 coat protein: 0.0273 µM
[2]
  apparent KD of MS2 coat protein: 0.117 µM
[3]
  apparent KD of MS2 coat protein: 0.139 µM

## CUCUUGUGAGGAUAUCAGGUGUGCUAGCGUACUGGUACAUCUGAGAAGGCACAUGAGGAUCACCCAUGUUUCAA [Mat - Exclusion 4 - Mod of JL - D41] (puzzle: Exclusion 4)
[2]
  apparent KD of MS2 coat protein: 0.0525 µM

## CUGAAAGACGAAGGAUAUCCAGGCACCGGAGUAGGAGAAGGUCGUCCGGGUGUCCUAGAACUUGAGGAUCACCCAAGUAGAAGA [Mutated MS2 EX1.5] (Eterna round: R96, puzzle: Exclusion NG 1)
Input ligand: FMN 200 uM
  apparent KD of MS2 coat protein: 0.0344 µM
[4]
  apparent KD of MS2 coat protein: 0.0369 µM
Input ligand: none
  apparent KD of MS2 coat protein: 0.0247 µM

## CUGAAAGACGAAGGAUAUCCAGGCGCCGGCGUAGGAGAAGGUCGUCCGGGUGUCCUAGAACUUGAGGAUCACCCAAGUAGAAGA [Mutated MS2 EX1.14] (Eterna round: R96, puzzle: Exclusion NG 1)
Input ligand: FMN 200 uM
  apparent KD of MS2 coat protein: 0.0368 µM
[4]
  apparent KD of MS2 coat protein: 0.0249 µM
Input ligand: none
  apparent KD of MS2 coat protein: 0.0531 µM

## CUGAACCCGGUAGGAUAUAUUGUGGGCGGGCGUGGAACGACAUGAGGAUCACCCAUGUAAUUGAGGUAGAAGGGCCGAGAGGUU [Excl-NG2-LRO16] (Eterna round: R96, puzzle: Exclusion NG 2)
Input ligand: FMN 200 uM
  apparent KD of MS2 coat protein: 0.0385 µM
[4]
  apparent KD of MS2 coat protein: 0.0304 µM
Input ligand: none
  apparent KD of MS2 coat protein: 0.0438 µM

## CUGAGCUGAGGAUAUACAUGAGGAUCACCCAUGUAAAGUAGCUUGCGUACAGGCAGAUGUAGAAGGCAGUUCGG [Mod of JL 2 - Jieux - Exclusion 3] (Eterna round: R97, puzzle: Exclusion 3)
Input ligand: FMN 200 uM
  apparent KD of MS2 coat protein: 0.0347 µM
Input ligand: none
  apparent KD of MS2 coat protein: 0.0205 µM

## CUGAGCUGAGGAUAUACAUGAGGAUCACCCAUGUGUUCGAGCUUGCGUACAGGCAGAUGUAGAAGGCAGUUCGG [JL-ex3-3.34 Brourd mod] (puzzle: Exclusion 3)
[2]
  apparent KD of MS2 coat protein: 0.0238 µM

## CUGAGGUAGCGGUCCUAUGACAUGAGGAUCACCCAUGUACCUUGCUUUGAGCAAUUUGCUCGUCUUAUGAUUCUCGG [Mat - Sensor v3 - turn-off var 1 - JL Mod - D46] (puzzle: Sensor v3, turn-off variant 1)
[1]
  apparent KD of MS2 coat protein: 0.446 µM
[2]
  apparent KD of MS2 coat protein: 0.468 µM
[3]
  apparent KD of MS2 coat protein: 0.533 µM

## CUGAGGUAGCGGUCCUAUGACAUGAGGAUCACCCAUGUACCUUGCUUUGAGCUUUUUGCUCGUCUUAUGAUUCUCGG [JL Atriat mod 6] (puzzle: Sensor v3, turn-off variant 1)
[1]
  apparent KD of MS2 coat protein: 0.472 µM
[2]
  apparent KD of MS2 coat protein: 0.283 µM
[3]
  apparent KD of MS2 coat protein: 0.462 µM

## CUGAGGUAGCGGUCCUAUGACAUGAGGAUCACCCAUGUGCCUUGCUACAAGCUUUUUGCUCGUCUUAUGAUUCUCGG [JL Atriat mod 9] (puzzle: Sensor v3, turn-off variant 1)
[1]
  apparent KD of MS2 coat protein: 0.0478 µM
[2]
  apparent KD of MS2 coat protein: 0.107 µM
[3]
  apparent KD of MS2 coat protein: 0.0519 µM

## CUGAUGUGAGGAUAUGUGAUCUGCCUUCUAUGUAGAUGAUCACAGAAGGCACAUGAGGAUCACCCAUGUAGAUC [Ex4 - 3 - 26] (Eterna round: R96, puzzle: Exclusion 4)
Input ligand: FMN 200 uM
  apparent KD of MS2 coat protein: 0.129 µM
[4]
  apparent KD of MS2 coat protein: 0.0573 µM
Input ligand: none
  apparent KD of MS2 coat protein: 0.0994 µM

## CUGAUGUGAGGAUAUGUGAUCUGCCUUCUAUGUAGAUGAUCACAGAAGGCACAUGAGGAUCACCCAUGUAGAUC [Ex4 - 3 - 26] (puzzle: Exclusion 4)
[2]
  apparent KD of MS2 coat protein: 0.0697 µM

## CUGCUCCGUGUAGGAUAUGCAUACUCCCAUUAUGCAGAAGGACAUGAGGAUCACCCAUGUAUGUUAUUAUCAUGUGUUGCGUGC [Design 12] (Eterna round: R96, puzzle: Exclusion NG 1)
[4]
  apparent KD of MS2 coat protein: 0.03 µM

## CUGCUGGAGCUUUGCUUUAGUCGUACAUGAGGAUCACCCAUGUAGGAUAUGGUAGGCUUUGCUUACUAGAAGGAUAGAGUGGUC [salish99_ExNG3_r04_606] (Eterna round: R96, puzzle: Exclusion NG 3)
Input ligand: FMN 200 uM
  apparent KD of MS2 coat protein: 0.226 µM
[4]
  apparent KD of MS2 coat protein: 0.0666 µM
Input ligand: none
  apparent KD of MS2 coat protein: 0.062 µM

## CUGGACUGAGGAUAUUGUGCUGCUGACAUGAGGAUCACCCAUGUAUGUUAACUCGGCCGUCGAGAAGGCAGACAGG [BotMod 18 - Jieux - Exclusion 5] (Eterna round: R97, puzzle: Exclusion 5)
Input ligand: FMN 200 uM
  apparent KD of MS2 coat protein: 0.0165 µM
Input ligand: none
  apparent KD of MS2 coat protein: 0.0191 µM

## CUGGUCCGAGGAUAUAUGAUGUGAUACAUGAGGAUCACCCAUGUUAUAUUAUGGAUGUAAAUAGAAGGCGGACUAG [Mat - Exclusion 5 - JL mod - D71] (puzzle: Exclusion 5)
[1]
  apparent KD of MS2 coat protein: 0.0712 µM
[2]
  apparent KD of MS2 coat protein: 0.0722 µM
[3]
  apparent KD of MS2 coat protein: 0.0739 µM
